“And” between values parts separate entries of the source, which are not always exact repeats. Identical values can stand only once. Like-named read-outs stand apart in the source and are kept apart here. No end group written: not given here. *: point of attachment. 125I = [125I]*
Experiments:
[1] = target: Arg-Gly-Asp-directed receptors on LiBr melanoma cells (human (endogenous in LiBr)); assay: radioligand binding
[2] = target: Arg-Gly-Asp-directed receptors on LiBr melanoma cells (human (endogenous in LiBr)); assay: radioligand binding; remark: listed apart in the source

specific cpm [1]: 2660 cpm | specific cpm [2]: 637 cpm and 494 cpm
Binder: KY(125I)GRGDSP [iodinated synthetic peptide KYGRGDSP]

From PMC2115308
